Holding throughout (settings): both partners purified
Assay [1] addresses T1, Myo16Tail without the IQ motif, Myo16Tail (−IQ), His6-tagged (Rattus norvegicus, UniProt Q9ERC1 1176-1912).
T1 construct: Myosin 16 (Myo16b isoform), Rattus norvegicus, UniProt Q9ERC1, residues 1176-1912 (tail without the IQ motif); Cloned into the pFastBac vector as m1; No removal of the His6 tag is described; also called His6–Myo16Tail (−IQ); source: baculovirus/Sf9, purified by the denaturing procedure (Ni-NTA), renatured
T1 sequence (looked up): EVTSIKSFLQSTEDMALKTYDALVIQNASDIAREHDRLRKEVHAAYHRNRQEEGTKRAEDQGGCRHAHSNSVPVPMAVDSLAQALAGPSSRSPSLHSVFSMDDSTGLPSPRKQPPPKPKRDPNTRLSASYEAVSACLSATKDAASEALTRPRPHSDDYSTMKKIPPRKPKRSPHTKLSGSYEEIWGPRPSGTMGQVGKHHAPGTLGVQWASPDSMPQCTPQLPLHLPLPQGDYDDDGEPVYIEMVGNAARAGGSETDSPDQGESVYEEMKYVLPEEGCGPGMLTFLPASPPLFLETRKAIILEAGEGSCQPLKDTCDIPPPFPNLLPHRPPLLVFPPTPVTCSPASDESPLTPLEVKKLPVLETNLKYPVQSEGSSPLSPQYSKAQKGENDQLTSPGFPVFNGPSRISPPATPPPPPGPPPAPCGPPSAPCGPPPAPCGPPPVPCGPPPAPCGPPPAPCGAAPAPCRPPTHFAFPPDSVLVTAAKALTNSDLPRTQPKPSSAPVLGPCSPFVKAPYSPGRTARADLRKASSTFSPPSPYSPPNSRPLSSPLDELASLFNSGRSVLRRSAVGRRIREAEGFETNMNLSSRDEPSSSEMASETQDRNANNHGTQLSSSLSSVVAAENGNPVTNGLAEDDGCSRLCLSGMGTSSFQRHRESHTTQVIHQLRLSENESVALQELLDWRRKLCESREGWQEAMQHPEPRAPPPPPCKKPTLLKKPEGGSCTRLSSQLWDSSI
Nature of the assay: fluorescence polarisation; steady-state fluorescence anisotropy; Alexa568–Myo16Ank fixed (1.2 μM with Myo16Tail, 1 μM with Myo16Tail (−IQ)), tail construct titrated; λex 578 nm, λem 601 nm; quadratic binding equation (Equation 1).

For assay [2], the target named is T2, myosin 16 C-terminal tail (Myo16Tail), His6-tagged, with the IQ motif (Rattus norvegicus, UniProt Q9ERC1 1146-1912).
T2 construct: Myosin 16 (Myo16b isoform, 1912 aa), Rattus norvegicus, UniProt Q9ERC1, residues 1146-1912: IQ motif, NHM, proline-rich region and C-terminal element; cloned into pFastBac; No removal of the His6 tag is described; also called His6–Myo16Tail; C-terminal tail extension of Myo16b; source: baculovirus/Sf9, purified under denaturing conditions (6 M GuHCl, 8 M urea, Ni-NTA), renatured by dialysis
T2 sequence (looked up): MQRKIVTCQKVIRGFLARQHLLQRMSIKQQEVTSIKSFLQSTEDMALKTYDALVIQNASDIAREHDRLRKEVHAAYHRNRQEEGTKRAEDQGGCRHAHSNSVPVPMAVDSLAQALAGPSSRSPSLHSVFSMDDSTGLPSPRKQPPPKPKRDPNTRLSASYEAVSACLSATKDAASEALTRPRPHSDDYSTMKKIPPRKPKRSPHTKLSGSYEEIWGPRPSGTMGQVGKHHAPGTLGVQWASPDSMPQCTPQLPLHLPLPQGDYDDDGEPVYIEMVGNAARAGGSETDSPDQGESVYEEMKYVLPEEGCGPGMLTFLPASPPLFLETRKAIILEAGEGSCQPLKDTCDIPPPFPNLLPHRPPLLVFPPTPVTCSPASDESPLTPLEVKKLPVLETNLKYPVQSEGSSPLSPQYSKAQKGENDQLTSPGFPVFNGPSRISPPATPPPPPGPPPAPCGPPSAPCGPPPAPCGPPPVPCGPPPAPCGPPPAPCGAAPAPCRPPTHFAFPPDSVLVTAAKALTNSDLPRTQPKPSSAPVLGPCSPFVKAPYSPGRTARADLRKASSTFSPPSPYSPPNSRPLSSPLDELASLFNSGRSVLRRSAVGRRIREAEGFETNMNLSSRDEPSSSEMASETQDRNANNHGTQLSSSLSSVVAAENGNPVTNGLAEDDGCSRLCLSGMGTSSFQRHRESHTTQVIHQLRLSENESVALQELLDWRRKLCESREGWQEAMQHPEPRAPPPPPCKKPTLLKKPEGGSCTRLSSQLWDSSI
Described as above.

For assay [3], the target named is T3, Alexa568-labelled synthesized rat myosin 16 IQ motif peptide (Alexa568–Myo16IQ) (Rattus norvegicus, UniProt Q9ERC1 1146-1175, Alexa Fluor C5 568 maleimide label, position not stated).
T3 construct: Myosin 16 IQ motif, Rattus norvegicus, residues 1146-1175 (30 amino acids, MW 3.6385 kDa by mass spectrometry); source: synthetic peptide (GenScript)
T3 peptide (looked up): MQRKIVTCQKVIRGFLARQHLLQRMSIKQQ
Nature of the assay: fluorescence polarisation; steady-state fluorescence anisotropy; Alexa568–Myo16IQ fixed (1 μM), Myo16Ank titrated; λex 578 nm, λem 601 nm; quadratic binding equation (Equation 1). (Polarisation of emitted light reports the rotation of a fluorescent probe.)

Here are results for two molecules from article PMC8253979, “The C-terminal tail extension of myosin 16 acts as a molten globule, including intrinsically disordered regions, and interacts with the N-terminal ankyrin” (The Journal of Biological Chemistry, 2021).

B1: Alexa568-labelled N-terminal ankyrin domain of myosin 16 (Alexa568–Myo16Ank) (domain or fragment)
chain: MEIDQCLLESLPLGQRQRLVRRMRCEQIKAYYEREKVFQKQEGLLKRIKPGKSQKVRFGLADMIQDAIIHHHDKEVLQLLKEGADPHTLVSSGGSLLHLCARYDNVFIAEVLIDRGVNVNHQDEDFWAPMHIACACDNPDIVLLLILAGANVLLQDVNGNIPLDYAVEGTESSAILLAYLDENGVDLNSLRQIKLQRPLSMLTDVRHFLSSGGDVNEKNDDGVTLLHMACASGYKEVVLLLLEHGGDLNGMDDGYWTPLHLAAKYGQTTLVKLLLAHQANPHLVNCNGEKPSDIAASESIEEMLLKAEIAWEERMKESPSVPSLAQEELYEEILHDLPELSSKLSPLVLPIAKQDSLLEKDIMFKDTTKGLCNQESQDGPPETSMVSSSSKPEQVQLTPP
modifications: Alexa Fluor C5 568 maleimide label, position not stated
B1: the Kd was 5.6 µM in assay [1] and 2.5 µM in assay [2].

B2: N-terminal ankyrin domain of myosin 16 (Myo16Ank), unlabelled (domain or fragment)
chain: MEIDQCLLESLPLGQRQRLVRRMRCEQIKAYYEREKVFQKQEGLLKRIKPGKSQKVRFGLADMIQDAIIHHHDKEVLQLLKEGADPHTLVSSGGSLLHLCARYDNVFIAEVLIDRGVNVNHQDEDFWAPMHIACACDNPDIVLLLILAGANVLLQDVNGNIPLDYAVEGTESSAILLAYLDENGVDLNSLRQIKLQRPLSMLTDVRHFLSSGGDVNEKNDDGVTLLHMACASGYKEVVLLLLEHGGDLNGMDDGYWTPLHLAAKYGQTTLVKLLLAHQANPHLVNCNGEKPSDIAASESIEEMLLKAEIAWEERMKESPSVPSLAQEELYEEILHDLPELSSKLSPLVLPIAKQDSLLEKDIMFKDTTKGLCNQESQDGPPETSMVSSSSKPEQVQLTPP
The molecule B2 registered a Kd in assay [3] of 16 µM.

In general, Kd refers to the constant that tells how readily two partners part at equilibrium.
